The values below come from paper PMC8324772.

Assay [1] deals with Klebsiella quasipneumoniae Qmp M1-977 TolC (KqTolC), recombinant, C-terminal His6 (Klebsiella quasipneumoniae). The experiment in a line: stopped-flow fluorescence (pre-equilibrium, tryptophan emission); 0.5 µM KqTolC with excess KlebC_(1-254), pseudo-first-order, 25 °C; kapp from single exponential fits, kon from the gradient of kapp against concentration.
Assay [2] shares this target. Description: ITC + other: stopped-flow fluorescence; koff not measured (too slow): estimated from the Kd by ITC and the kon by stopped-flow, assuming Kd = koff/kon.
For assay [3] the target is unchanged. Description: ITC; KlebC constructs in the syringe (76-89 µM), TolC trimer in the cell (5-7.6 µM); 25 mM Tris-HCl pH 7.5, 1% (w/v) β-OG; no feedback mode, 750 s between injections; single set of identical sites. A general note: In ITC the heat of successive injections is recorded.
In assay [4] the target is TolC of Klebsiella quasipneumoniae Qmp M1-977, endogenous (Klebsiella quasipneumoniae (endogenous in K. quasipneumoniae Qmp M1-977)).
The target of assay [5] is Klebsiella quasipneumoniae Qmp M1-977 TolC (KqTolC), recombinant, C-terminal His6 (Klebsiella quasipneumoniae). The experiment in a line: cryo-EM structure; KqTolC-KlebC_(1-254) mixed in β-OG and transferred into amphipol A8-35 without cross-linking; only KqTolC resolved; 3.4 Å.
Assay [6] shares this target. Description: stopped-flow fluorescence (pre-equilibrium, loss of Trp-to-AEDANS FRET); TolC in excess, pseudo-first-order, 25 °C; single exponential fits.
For assay [7] the target is unchanged. Description: stopped-flow fluorescence (pre-equilibrium, loss of Trp-to-AEDANS FRET); Q204C^AEDANS KlebC_(1-254) in excess, pseudo-first-order, 25 °C; single exponential fits.
For assay [8] the target is unchanged. Description: equilibrium fluorescence (Trp-to-AEDANS FRET within KlebC); 1 µM Q204C^AEDANS KlebC_(1-254) without and with 1 µM KqTolC trimer; excitation 280 nm, FRET signal at 490 nm, 25 °C.

pKd: −log10 of the molar value.

Take KlebC_(1-254) (domain or fragment): the kon (in general, the second-order rate constant of association) in assay [1] stood at 1900 M⁻¹ s⁻¹. The koff (commonly a measure of how fast the partners let go of each other) in assay [2] was 5e-05 s⁻¹. Further, in assay [3], the pKd – broadly, the Kd on a negative log10 scale, so that one unit is a factor of ten – was 7.46; the dH came to 30.6 kcal/mol; the stoichiometry N (binding sites per TolC trimer) stood at 0.9.

Substance KlebC_(51-254) (domain or fragment) gave a growth of K. quasipneumoniae on LB-Agar with 1 mg ml^−1 Rhodamine 6G after serial dilution in 1 or 10 µM KlebC (51-254) in assay [4] of 4 log. Further, in assay [3], the pKd is 6.43, the dH worked out at 20.8 kcal/mol and the stoichiometry N (binding sites per TolC trimer) amounted to 1.34.

For the substance “Klebsiella quasipneumoniae Qmp M1-977 TolC (KqTolC), recombinant, C-terminal His6 (natural protein)”, the stoichiometry N (commonly the number of molecules, sites or subunits per partner or assembly) in assay [5] is 3.

Consider “Q204C^AEDANS KlebC_(1-254) (domain or fragment)”, for which the values for the kon in assay [6] and in assay [7] were 6700 M⁻¹ s⁻¹ and 2900 M⁻¹ s⁻¹, respectively. Moreover, in assay [8], the decrease of the Trp-to-AEDANS FRET signal at 490 nm upon addition of equimolar TolC trimer amounted to 77%.
